According to the supplement of paper PMC10724198:
± gives the standard deviation of the averaged measurements.

Experiments:
[1] = test system: Saccharomyces cerevisiae; assay: protein stability index of tFT-peptide fusion (C-terminal peptide) (PSI (0-1 scale)); higher = more stable (slower turnover)
Method: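 MPS profiling in S. cerevisiae of the tFT-X12 degron library: putative degron peptides plus stable controls, 12 aa, fused to the C-terminus of a sfGFP-mCherry timer. Cells are FACS-sorted into 8 mCherry/sfGFP bins and deep-sequenced. PSI runs from 0 (unstable) to 1 (stable). Backgrounds are wild type, das1Δ and doa10Δ at 30 °C, and wild type, das1Δ, cdc34-1 and cdc53-1 at 37 °C; 2-3 technical replicates each.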

[2] = test system: Saccharomyces cerevisiae; assay: as above; conditions: genetic background: wild type; temperature: 30 C
[3] = genetic background: cdc34-1, temperature: 37 C
[4] = genetic background: cdc53-1, temperature: 37 C
[5] = genetic background: das1 deletion, temperature: 30 C
[6] = genetic background: das1 deletion, temperature: 37 C
[7] = genetic background: doa10 deletion, temperature: 30 C
[8] = genetic background: wild type, temperature: 30 C
[9] = genetic background: wild type, temperature: 37 C
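Further: PSI is a weighted mean of sequencing reads over stability bins, variants kept only with over 10 reads, mCherry proximal and sfGFP distal, peptide attached via GGGS linker.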

## ARWNTDRRRRQL
[1]; [3]
  protein stability index: 0.6089 ± 0.0047
[1]; [4]
  protein stability index: 0.711 ± 0.024
[1]; [5]
  protein stability index: 0.688 ± 0.045
[1]; [6]
  protein stability index: 0.7022 ± 0.0017
[1]; [7]
  protein stability index: 0.236 ± 0.0035
[1]; [8]
  protein stability index: 0.253 ± 0.034
[1]; [9]
  protein stability index: 0.502 ± 0.025
[2]
  protein stability index: 0.421 ± 0.017

## ASIEVGNVIKQM
[1]; [3]
  protein stability index: 0.672 ± 0.051
[1]; [4]
  protein stability index: 0.7189 ± 0.0025
[1]; [5]
  protein stability index: 0.627 ± 0.036
[1]; [6]
  protein stability index: 0.7202 ± 0.0061
[1]; [7]
  protein stability index: 0.375 ± 0.0075
[1]; [8]
  protein stability index: 0.43 ± 0.019
[1]; [9]
  protein stability index: 0.632 ± 0.027
[2]
  protein stability index: 0.518 ± 0.037

## ASSSPAPYAPYT
[1]; [3]
  protein stability index: 0.7006 ± 0.0052
[1]; [4]
  protein stability index: 0.7559 ± 0.0043
[1]; [5]
  protein stability index: 0.647 ± 0.031
[1]; [6]
  protein stability index: 0.76 ± 0.029
[1]; [7]
  protein stability index: 0.634 ± 0.03
[1]; [8]
  protein stability index: 0.642 ± 0.025
[1]; [9]
  protein stability index: 0.744 ± 0.017
[2]
  protein stability index: 0.635 ± 0.23

## ATAVMILCFRWC
[1]; [3]
  protein stability index: 0.392 ± 0.0051
[1]; [4]
  protein stability index: 0.492 ± 0.018
[1]; [5]
  protein stability index: 0.329 ± 0.041
[1]; [6]
  protein stability index: 0.526 ± 0.013
[1]; [7]
  protein stability index: 0.2872 ± 0.0016
[1]; [8]
  protein stability index: 0.308 ± 0.015
[1]; [9]
  protein stability index: 0.4711 ± 0.00051
[2]
  protein stability index: 0.419 ± 0.053

## AVLAALVSTLAG
[1]; [3]
  protein stability index: 0.548 ± 0.019
[1]; [4]
  protein stability index: 0.565 ± 0.0091
[1]; [5]
  protein stability index: 0.383 ± 0.024
[1]; [6]
  protein stability index: 0.5888 ± 0.0053
[1]; [7]
  protein stability index: 0.349 ± 0.013
[1]; [8]
  protein stability index: 0.406 ± 0.028
[1]; [9]
  protein stability index: 0.553 ± 0.026
[2]
  protein stability index: 0.4785 ± 0.00075

## AVPTSPYSLIVY
[1]; [3]
  protein stability index: 0.524 ± 0.0083
[1]; [4]
  protein stability index: 0.495 ± 0.088
[1]; [5]
  protein stability index: 0.367 ± 0.0063
[1]; [6]
  protein stability index: 0.54146 ± 0.00044
[1]; [7]
  protein stability index: 0.326 ± 0.011
[1]; [8]
  protein stability index: 0.337 ± 0.021
[1]; [9]
  protein stability index: 0.485 ± 0.011
[2]
  protein stability index: 0.476 ± 0.022

## AWGSWTLCVAVH
[1]; [3]
  protein stability index: 0.0257 ± 0.0088
[1]; [4]
  protein stability index: 0.0323 ± 0.0061
[1]; [5]
  protein stability index: 0.0888 ± 0.043
[1]; [6]
  protein stability index: 0.0713 ± 0.01
[1]; [7]
  protein stability index: 0.07331 ± 0.00055
[1]; [8]
  protein stability index: 0.089 ± 0.027
[1]; [9]
  protein stability index: 0.0602 ± 0.015
[2]
  protein stability index: 0.151 ± 0.011

## AWWMALAVPIVA
[1]; [3]
  protein stability index: 0.02 ± 0.0012
[1]; [4]
  protein stability index: 0.0219 ± 0.0076
[1]; [5]
  protein stability index: 0.103 ± 0.025
[1]; [6]
  protein stability index: 0.0676 ± 0.013
[1]; [7]
  protein stability index: 0.0817 ± 0.02
[1]; [8]
  protein stability index: 0.1 ± 0.023
[1]; [9]
  protein stability index: 0.062 ± 0.00098
[2]
  protein stability index: 0.0514 ± 0.042

## CCFVGLRYVLWV
[1]; [3]
  protein stability index: 0.431 ± 0.022
[1]; [4]
  protein stability index: 0.5 ± 0.018
[1]; [5]
  protein stability index: 0.345 ± 0.029
[1]; [6]
  protein stability index: 0.531 ± 0.0061
[1]; [7]
  protein stability index: 0.278 ± 0.012
[1]; [8]
  protein stability index: 0.288 ± 0.0082
[1]; [9]
  protein stability index: 0.462 ± 0.015
[2]
  protein stability index: 0.365 ± 0.009

## CCLGVIASFIVW
[1]; [3]
  protein stability index: 0.247 ± 0.01
[1]; [4]
  protein stability index: 0.435 ± 0.15
[1]; [5]
  protein stability index: 0.284 ± 0.036
[1]; [6]
  protein stability index: 0.455 ± 0.024
[1]; [7]
  protein stability index: 0.236 ± 0.0065
[1]; [8]
  protein stability index: 0.254 ± 0.036
[1]; [9]
  protein stability index: 0.408 ± 0.0049
[2]
  protein stability index: 0.3579 ± 0.0021

## CFLLSYRWVFLC
[1]; [3]
  protein stability index: 0.0855 ± 0.0055
[1]; [4]
  protein stability index: 0.0678 ± 0.0095
[1]; [5]
  protein stability index: 0.177 ± 0.033
[1]; [6]
  protein stability index: 0.2381 ± 0.0016
[1]; [7]
  protein stability index: 0.0531 ± 0.0053
[1]; [8]
  protein stability index: 0.0411 ± 0.018
[1]; [9]
  protein stability index: 0.0605 ± 0.03
[2]
  protein stability index: 0.0949 ± 0.027

## CFSIPLVILNVL
[1]; [3]
  protein stability index: 0.468 ± 0.018
[1]; [4]
  protein stability index: 0.496 ± 0.02
[1]; [5]
  protein stability index: 0.431 ± 0.018
[1]; [6]
  protein stability index: 0.531 ± 0.025
[1]; [7]
  protein stability index: 0.335 ± 0.0063
[1]; [8]
  protein stability index: 0.338 ± 0.02
[1]; [9]
  protein stability index: 0.455 ± 0.0097
[2]
  protein stability index: 0.413 ± 0.0076

## CFWLLSSLLLFL
[1]; [3]
  protein stability index: 0.462 ± 0.016
[1]; [4]
  protein stability index: 0.474 ± 0.0089
[1]; [5]
  protein stability index: 0.429 ± 0.017
[1]; [6]
  protein stability index: 0.5398 ± 0.0016
[1]; [7]
  protein stability index: 0.492 ± 0.0067
[1]; [8]
  protein stability index: 0.416 ± 0.034
[1]; [9]
  protein stability index: 0.514 ± 0.0075
[2]
  protein stability index: 0.453 ± 0.019

## CFYVGFLGYFVF
[1]; [3]
  protein stability index: 0.447 ± 0.026
[1]; [4]
  protein stability index: 0.556 ± 0.005
[1]; [5]
  protein stability index: 0.357 ± 0.04
[1]; [6]
  protein stability index: 0.55 ± 0.027
[1]; [7]
  protein stability index: 0.342 ± 0.0064
[1]; [8]
  protein stability index: 0.367 ± 0.011
[1]; [9]
  protein stability index: 0.505 ± 0.014
[2]
  protein stability index: 0.42 ± 0.0044

## CGLGKVLGWRWV
[1]; [3]
  protein stability index: 0.643 ± 0.036
[1]; [4]
  protein stability index: 0.7267 ± 0.002
[1]; [5]
  protein stability index: 0.64 ± 0.015
[1]; [6]
  protein stability index: 0.745 ± 0.023
[1]; [7]
  protein stability index: 0.185 ± 0.0019
[1]; [8]
  protein stability index: 0.227 ± 0.01
[1]; [9]
  protein stability index: 0.5193 ± 0.0018
[2]
  protein stability index: 0.4241 ± 0.0014

## CGPLLVTLVLSM
[1]; [3]
  protein stability index: 0.445 ± 0.045
[1]; [4]
  protein stability index: 0.423 ± 0.02
[1]; [5]
  protein stability index: 0.305 ± 0.032
[1]; [6]
  protein stability index: 0.5011 ± 0.0028
[1]; [7]
  protein stability index: 0.304 ± 0.01
[1]; [8]
  protein stability index: 0.306 ± 0.018
[1]; [9]
  protein stability index: 0.476 ± 0.012
[2]
  protein stability index: 0.404 ± 0.0049

## CLAWWLGRVWVC
[1]; [3]
  protein stability index: 0.184 ± 0.018
[1]; [4]
  protein stability index: 0.225 ± 0.0095
[1]; [5]
  protein stability index: 0.219 ± 0.027
[1]; [6]
  protein stability index: 0.364 ± 0.0011
[1]; [7]
  protein stability index: 0.115 ± 0.011
[1]; [8]
  protein stability index: 0.0919 ± 0.017
[1]; [9]
  protein stability index: 0.105 ± 0.0053
[2]
  protein stability index: 0.141 ± 0.006

## CLILGLFSLIFL
[1]; [3]
  protein stability index: 0.525 ± 0.061
[1]; [4]
  protein stability index: 0.5644 ± 0.00097
[1]; [5]
  protein stability index: 0.452 ± 0.018
[1]; [6]
  protein stability index: 0.561 ± 0.011
[1]; [7]
  protein stability index: 0.4758 ± 0.0028
[1]; [8]
  protein stability index: 0.441 ± 0.016
[1]; [9]
  protein stability index: 0.531 ± 0.056
[2]
  protein stability index: 0.482 ± 0.027

## CLRVSFFFWLFA
[1]; [3]
  protein stability index: 0.465 ± 0.017
[1]; [4]
  protein stability index: 0.562 ± 0.0068
[1]; [5]
  protein stability index: 0.392 ± 0.041
[1]; [6]
  protein stability index: 0.553 ± 0.0073
[1]; [7]
  protein stability index: 0.224 ± 0.0084
[1]; [8]
  protein stability index: 0.263 ± 0.017
[1]; [9]
  protein stability index: 0.424 ± 0.0084
[2]
  protein stability index: 0.351 ± 0.016
